Data from the Immune Epitope Database (IEDB).
pIC50, pKd: −log10 of the molar value.

Assays:
HLA-B*40:01 = assay: IEDB peptide-MHC binding, purified MHC/competitive/radioactivity; filed as Kd, often an IC50 or EC50 that approximates it; ≥ and ≤ were set here for values at or beyond the usual limits of such assays
HLA-B*44:02 = assay: as above
HLA-B*44:03 = assay: as above; settings: source organism: Dengue virus 4 Philippines/H241/1956
HLA-A*30:01 = assay: as above
HLA-A*24:02 [1] = assay: as above
HLA-A*02:01 [2] = assay: IEDB peptide-MHC binding, purified MHC/competitive/fluorescence; ≥ and ≤ were set here for values at or beyond the usual limits of such assays
HLA-A*02:01 [3] = assay: IEDB peptide-MHC binding, purified MHC/competitive/radioactivity; filed as Kd, often an IC50 or EC50 that approximates it; ≥ and ≤ were set here for values at or beyond the usual limits of such assays; settings: source organism: Homo sapiens
HLA-A*02:03 = assay: as above; settings: source organism: Homo sapiens
HLA-A*23:01 = assay: as above; settings: source organism: Dengue virus 2 Jamaica/1409/1983
HLA-A*24:02 [4] = assay: IEDB peptide-MHC binding, purified MHC/competitive/fluorescence; ≥ and ≤ were set here for values at or beyond the usual limits of such assays
HLA-A*26:01 [5] = assay: IEDB peptide-MHC binding, purified MHC/competitive/radioactivity; filed as Kd, often an IC50 or EC50 that approximates it; ≥ and ≤ were set here for values at or beyond the usual limits of such assays
HLA-A*26:01 [6] = assay: IEDB peptide-MHC binding, purified MHC/direct/fluorescence; filed as Kd, often an IC50 or EC50 that approximates it; ≥ and ≤ were set here for values at or beyond the usual limits of such assays
HLA-A*30:02 = assay: IEDB peptide-MHC binding, purified MHC/competitive/radioactivity; filed as Kd, often an IC50 or EC50 that approximates it; ≥ and ≤ were set here for values at or beyond the usual limits of such assays; settings: source organism: Dengue virus 4 Philippines/H241/1956
HLA-B*53:01 = assay: as above; settings: source organism: Dengue virus 2 Jamaica/1409/1983
HLA-A*01:01 = assay: as above; settings: source organism: Dengue virus 1 Brazil/97-11/1997
HLA-A*33:01 = assay: as above; settings: source organism: Dengue virus 1 Brazil/97-11/1997
[7] = source organism: Dengue virus 4 Philippines/H241/1956
[8] = source organism: Dengue virus 2 Jamaica/1409/1983
[9] = source organism: Dengue virus 1 Brazil/97-11/1997
[10] = source organism: Zaire ebolavirus

AEGVITQDDM
pKd (HLA-B*40:01; [7]): 5.88

AERTGEPDY
pKd (HLA-B*44:02; [7]): 6.41 | pKd (HLA-B*44:03): 6.07

AFKVRPTFA
pKd (HLA-A*30:01; [8]): 7.28

AFPQSNAVI
pKd (HLA-A*24:02 [1]; [9]): 5.54

ALLEDPVGT
pIC50 (HLA-A*02:01 [2]; source organism: Human alphaherpesvirus 1 strain 17): 7.55

ALPHAILRL
pKd (HLA-A*02:01 [3]): 6.89 | pKd (HLA-A*02:03): 8.10

AVPSHWVPTS
pKd (HLA-A*30:01; [8]): 4.82

AYTIGTTHF
pKd (HLA-A*23:01): 6.90 | pKd (HLA-A*24:02 [1]; [8]): 6.11

CETCVYNMM
pKd (HLA-B*40:01; [8]): 7.28 | pKd (HLA-B*44:02; [8]): 7.04

CLEKVQRQI
pIC50 (HLA-A*02:01 [2]; [10]): 4.66

CLPAAPDGI
pIC50 (HLA-A*02:01 [2]; [10]): 5.42 | pIC50 (HLA-A*24:02 [4]; [10]): 4.43

CSRLQTCIK
pKd (HLA-A*30:01; source organism: Vaccinia virus Copenhagen): 7.36

CTILAAVSVS
pKd (HLA-A*26:01 [5]; [8]): ≤ 4.25 | pKd (HLA-A*30:01; [8]): 5.55

DKFRKSSFF
pIC50 (HLA-A*24:02 [4]; source organism: Sudan ebolavirus): 4.28

DRERLKVFL
pIC50 (HLA-A*24:02 [4]; source organism: Variola virus): ≤ 3.77

EERDIPERSW
pKd (HLA-B*44:02; [9]): 7.14

EEYVDYMPV
pKd (HLA-B*40:01; [7]): 6.72

EGINELGAM
pKd (HLA-A*26:01 [6]; source organism: Vibrio vulnificus CMCP6): 7.32

EKTKTDFGFY
pKd (HLA-A*26:01 [5]; [7]): 5.03 | pKd (HLA-A*30:02): 7.70

ELMMATIGIA
pKd (HLA-A*26:01 [5]; [8]): 7.19

EPIPMSTYGW
pKd (HLA-A*26:01 [5]; [8]): ≤ 4.39 | pKd (HLA-B*53:01): 6.48

ETWALRHPGF
pKd (HLA-A*01:01): ≤ 4.39 | pKd (HLA-A*26:01 [5]; [9]): 6.18 | pKd (HLA-A*30:01; [9]): 5.72

EVADRILFM
pKd (HLA-A*26:01 [6]; source organism: Bacillus cereus AH1134): 8.52

EVKTCIWPK
pKd (HLA-A*30:01; [9]): 5.87 | pKd (HLA-A*33:01): 8.55
